Data on five proteins can be found in article PMC4051119, “Bacterial actin MreB forms antiparallel double filaments” (eLife, 2014).

Data set [1] concerns the molecule itself. Description: negative-stain electron microscopy; pre-assembled filaments (CcMreB 0.25 mg/ml, V118E 0.13 mg/ml) in 12.5 mM Tris-HCl 7.5, 2 mM ATP, 4 mM MgCl2 on a monolayer of E. coli total lipid extract, 2% uranyl acetate; 2D averaging.
Data set [2] concerns the molecule itself. Description: cryo-electron microscopy and tomography; MreB 1 mg/ml with 1 mg/ml liposomes (E. coli total lipid extract) or lipid tubes (plus 30% C24:1 β-D galactosyl ceramide), 2 mM ATP, 4 mM MgCl2; CcMreB in 12.5 mM Tris-HCl 7.5, TmMreB in 100 mM Tris-HCl 7.5, 200 mM NaCl; 2D and subtomogram averaging.
Data set [3] deals with the molecule itself. Put plainly: crystal structure; C. crescentus MreB constructs crystallised at 10-30 mg/ml, empty or with ADP or AMPPNP, no inhibitor; filament or monomer state read from the crystal packing.
Data set [4] deals with the molecule itself. The description is as above. This is another data set of the same source.

B1: Full-length, untagged MreB from C. crescentus (CcMreB) (natural protein, Caulobacter crescentus, UniProt A0A0H3C7V4 1-347, looked up)
chain: MFSSLFGVISNDIAIDLGTANTLIYQKGKGIVLNEPSVVALRNVGGRKVVHAVGIEAKQMLGRTPGHMEAIRPMRDGVIADFEVAEEMIKYFIRKVHNRKGFVNPKVIVCVPSGATAVERRAINDSCLNAGARRVGLIDEPMAAAIGAGLPIHEPTGSMVVDIGGGTTEVAVLSLSGIVYSRSVRVGGDKMDEAIISYMRRHHNLLIGETTAERIKKEIGTARAPADGEGLSIDVKGRDLMQGVPREVRISEKQAADALAEPVGQIVEAVKVALEATPPELASDIADKGIMLTGGGALLRGLDAEIRDHTGLPVTVADDPLSCVALGCGKVLEHPKWMKGVLESTLA
notes: MreB, Caulobacter crescentus, GenBank ACL95077.1, M1-A347; Forms filaments (double protofilaments); number of copies not defined; also called Caulobacter MreB; pFE403 (plasmid); source: E. coli C41, purified (HisTrap, elution by SUMO protease, GST column, S300HR size exclusion)
As to B1, in data set [1], the binding result is reported as “binds”.

B2: CcMreB-V118E (inter-protofilament mutant V118E in full-length CcMreB) (natural protein, Caulobacter crescentus, UniProt A0A0H3C7V4 1-347, looked up)
chain: MFSSLFGVISNDIAIDLGTANTLIYQKGKGIVLNEPSVVALRNVGGRKVVHAVGIEAKQMLGRTPGHMEAIRPMRDGVIADFEVAEEMIKYFIRKVHNRKGFVNPKVIVCVPSGATAEERRAINDSCLNAGARRVGLIDEPMAAAIGAGLPIHEPTGSMVVDIGGGTTEVAVLSLSGIVYSRSVRVGGDKMDEAIISYMRRHHNLLIGETTAERIKKEIGTARAPADGEGLSIDVKGRDLMQGVPREVRISEKQAADALAEPVGQIVEAVKVALEATPPELASDIADKGIMLTGGGALLRGLDAEIRDHTGLPVTVADDPLSCVALGCGKVLEHPKWMKGVLESTLA
notes: MreB, Caulobacter crescentus, GenBank ACL95077.1, full length with V118E; also called pFE542 (plasmid); source: E. coli C41, purified (HisTrap, elution by SUMO protease, GST column, S300HR size exclusion); not shown: His-SUMO, N-terminal, cleaved
With B2, the binding result in data set [1] is recorded as “binds”.

B3: Full-length untagged Thermotoga maritima MreB1 (TmMreB) (natural protein, UniProt Q9WZ57 1-336, looked up)
chain: MLRKDIGIDLGTANTLVFLRGKGIVVNEPSVIAIDSTTGEILKVGLEAKNMIGKTPATIKAIRPMRDGVIADYTVALVMLRYFINKAKGGMNLFKPRVVIGVPIGITDVERRAILDAGLEAGASKVFLIEEPMAAAIGSNLNVEEPSGNMVVDIGGGTTEVAVISLGSIVTWESIRIAGDEMDEAIVQYVRETYRVAIGERTAERVKIEIGNVFPSKENDELETTVSGIDLSTGLPRKLTLKGGEVREALRSVVVAIVESVRTTLEKTPPELVSDIIERGIFLTGGGSLLRGLDTLLQKETGISVIRSEEPLTAVAKGAGMVLDKVNILKKLQGAG
notes: MreB1, Thermotoga maritima, GenBank AAD35673.1, M1-G336; called non-tagged / untagged; also called pFE349 (plasmid); source: expressed as an Intein-CBD-tagged fusion from plasmid pFE349 and purified as described previously (Salje et al., 2011)
On to B3, for which the binding result in data set [2] is “binds”.

B4: ΔCcMreBh (M-I9-CcMreB-A347-GSHHHHHH) (domain or fragment, Caulobacter crescentus)
chain: MISNDIAIDLGTANTLIYQKGKGIVLNEPSVVALRNVGGRKVVHAVGIEAKQMLGRTPGHMEAIRPMRDGVIADFEVAEEMIKYFIRKVHNRKGFVNPKVIVCVPSGATAVERRAINDSCLNAGARRVGLIDEPMAAAIGAGLPIHEPTGSMVVDIGGGTTEVAVLSLSGIVYSRSVRVGGDKMDEAIISYMRRHHNLLIGETTAERIKKEIGTARAPADGEGLSIDVKGRDLMQGVPREVRISEKQAADALAEPVGQIVEAVKVALEATPPELASDIADKGIMLTGGGALLRGLDAEIRDHTGLPVTVADDPLSCVALGCGKVLEHPKWMKGVLESTLA
notes: start methionine placed before I9; MreB, Caulobacter crescentus, GenBank ACL95077.1, I9-A347 (N-terminal amphipathic helix deleted); Electrospray mass 36,916 Da (36,911 Da expected); also called CCM2; source: E. coli C41(DE3), purified (HisTrap, Sephacryl S300HR)
As to B4, the binding result in data set [3] is “binds”.

B5: ΔCcMreBdh (M-I9-CcMreB(F102S, V103G)-A347-GSHHHHHH) (domain or fragment, Caulobacter crescentus)
chain: MISNDIAIDLGTANTLIYQKGKGIVLNEPSVVALRNVGGRKVVHAVGIEAKQMLGRTPGHMEAIRPMRDGVIADFEVAEEMIKYFIRKVHNRKGSGNPKVIVCVPSGATAVERRAINDSCLNAGARRVGLIDEPMAAAIGAGLPIHEPTGSMVVDIGGGTTEVAVLSLSGIVYSRSVRVGGDKMDEAIISYMRRHHNLLIGETTAERIKKEIGTARAPADGEGLSIDVKGRDLMQGVPREVRISEKQAADALAEPVGQIVEAVKVALEATPPELASDIADKGIMLTGGGALLRGLDAEIRDHTGLPVTVADDPLSCVALGCGKVLEHPKWMKGVLESTLA
notes: start methionine placed before I9; MreB, Caulobacter crescentus, GenBank ACL95077.1, I9-A347, hydrophobic loop mutated (F102S, V103G); Electrospray mass 36,813 Da (36,809 Da expected); also called pFE397 (plasmid); source: E. coli C41(DE3), purified (HisTrap, Sephacryl S300HR)
Take B5: the binding result in data set [4] is given as “binds”.
